According to patent publication US7067277 (H LUNDBECK A S, dated 2006):
Residue numbers refer to the chain shown, from its start.

T1: rat GALR1 receptor (rat, UniProt Q62805 1-346)
T1 sequence (looked up): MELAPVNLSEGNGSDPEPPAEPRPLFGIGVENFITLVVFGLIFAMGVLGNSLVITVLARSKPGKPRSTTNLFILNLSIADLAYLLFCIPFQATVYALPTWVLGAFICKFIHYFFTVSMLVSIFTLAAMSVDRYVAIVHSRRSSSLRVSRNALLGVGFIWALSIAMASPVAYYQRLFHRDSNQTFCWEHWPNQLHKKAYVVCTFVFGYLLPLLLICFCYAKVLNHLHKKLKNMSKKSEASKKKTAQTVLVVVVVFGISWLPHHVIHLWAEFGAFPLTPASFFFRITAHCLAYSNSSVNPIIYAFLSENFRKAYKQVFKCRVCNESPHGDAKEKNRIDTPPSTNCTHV

T2: human Y5 receptor (human, UniProt Q15761 1-445)
T2 sequence (looked up): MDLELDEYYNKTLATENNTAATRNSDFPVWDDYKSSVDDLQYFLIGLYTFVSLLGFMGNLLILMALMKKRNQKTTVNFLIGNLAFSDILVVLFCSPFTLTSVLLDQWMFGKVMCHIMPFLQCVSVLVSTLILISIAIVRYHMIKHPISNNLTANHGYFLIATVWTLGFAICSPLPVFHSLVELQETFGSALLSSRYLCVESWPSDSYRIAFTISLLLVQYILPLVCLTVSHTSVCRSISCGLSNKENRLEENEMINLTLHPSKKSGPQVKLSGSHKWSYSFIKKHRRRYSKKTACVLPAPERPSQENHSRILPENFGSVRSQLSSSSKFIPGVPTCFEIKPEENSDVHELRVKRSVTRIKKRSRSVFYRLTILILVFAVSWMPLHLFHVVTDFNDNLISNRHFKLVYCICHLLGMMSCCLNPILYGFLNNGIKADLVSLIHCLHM

T3: human α2A adrenergic receptor (human, UniProt P08913 1-465)
T3 sequence (looked up): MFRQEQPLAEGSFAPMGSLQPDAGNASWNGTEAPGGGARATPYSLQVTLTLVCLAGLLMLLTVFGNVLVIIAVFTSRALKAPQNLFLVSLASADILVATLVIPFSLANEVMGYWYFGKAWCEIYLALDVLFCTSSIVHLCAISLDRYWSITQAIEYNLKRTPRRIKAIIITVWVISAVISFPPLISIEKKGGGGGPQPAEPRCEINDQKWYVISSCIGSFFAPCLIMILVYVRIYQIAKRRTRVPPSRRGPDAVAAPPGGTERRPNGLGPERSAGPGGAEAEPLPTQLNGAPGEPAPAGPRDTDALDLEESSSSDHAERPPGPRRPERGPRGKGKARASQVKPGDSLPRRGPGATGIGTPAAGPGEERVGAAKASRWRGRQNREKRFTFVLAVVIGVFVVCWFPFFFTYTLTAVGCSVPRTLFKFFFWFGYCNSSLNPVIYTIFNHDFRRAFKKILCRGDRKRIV

T4: human Y2 receptor (human, UniProt P49146 1-381)
T4 sequence (looked up): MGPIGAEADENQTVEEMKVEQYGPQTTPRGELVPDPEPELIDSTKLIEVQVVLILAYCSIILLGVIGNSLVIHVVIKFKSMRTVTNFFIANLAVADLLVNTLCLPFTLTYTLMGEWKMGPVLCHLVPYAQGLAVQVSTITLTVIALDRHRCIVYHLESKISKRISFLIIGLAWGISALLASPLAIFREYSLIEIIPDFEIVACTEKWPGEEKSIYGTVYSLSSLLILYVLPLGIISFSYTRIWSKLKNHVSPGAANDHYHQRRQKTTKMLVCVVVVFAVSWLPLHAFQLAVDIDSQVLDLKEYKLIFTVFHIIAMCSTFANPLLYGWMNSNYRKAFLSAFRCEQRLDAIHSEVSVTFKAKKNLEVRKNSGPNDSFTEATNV

B1: Human Gαq/z5 (Ala→Ser substitution at position 171) (other)
chain: MTLESIMACCLSEEAKEARRINDEIERQLRRDKRDARRELKLLLLGTGESGKSTFIKQMRIIHGSGYSDEDKRGFTKLVYQNIFTAMQAMIRAMDTLKIPYKYEHNKAHAQLVREVDVEKVSAFENPYVDAIKSLWNDPGIQECYDRRREYQLSDSTKYYLNDLDRVADPSYLPTQQDVLRVRVPTTGIIEYPFDLQSVIFRMVDVGGQRSERRKWIHCFENVTSIMFLVALSEYDQVLVESDNENRMEESKALFRTIITYPWFQNSSVILFLNKKDLLEEKIMYSHLVDYFPEYDGPQRDAQAAREFILKMFVDLNPDSDKIIYSHFTCATDTENIRFVFAAVKDTILQLNLKYIGLC
B2: C. elegans Gαq/z5 (other)
chain: MACCLSEEAREQKRINQEIEKQLQRDKRNARRELKLLLLGTGESGKSTFIKQMRIIHGQGYSEEDKRAHIRLVYQNVFMAIQSMIRAMDTLDIKFGNESEELQEKAAVVREVDFESVTSFEEPYVSYIKELWEDSGIQECYDRRREYQLTDSAKYYLSDLRRLAVPDYLPTEQDILRVRVPTTGIIEYPFDLEQIIFRMVDVGGQRSERRKWIHCFENVTSIMFLVALSEYDQVLVECDNENRMEESKALFRTIITYPWFTNSSVILFLNKKDLLEEKILYSHLADYFPEYDGPPRDPIAAREFILKMFVDLNPDADKIIYSHFTCATDTENIRFVFAAVKDTILQHNLKYIGLC
B3: C. elegans Gαq/z9 (other)
chain: B2 chain with H347N

How the values were obtained:
Experiment in all cases: cell-based or functional assay
[1] = biological target: human 5HT7 receptor (human, UniProt P34969 1-479)
[2] = biological target: mouse 5HT5A receptor (mouse, UniProt P30966 1-357)
[3] = biological target: human dopamine D5 receptor (human, UniProt P21918 1-477)
[4] = biological target: human 5HT4 receptor (human, UniProt Q13639 1-388)
[5] = biological target: human 5HT6 receptor (human, UniProt P50406 1-440)
[6] = biological target: T1, rat GALR1 receptor
[7] = biological target: rat Y4 receptor (rat, UniProt Q63447 1-375)
[8] = biological target: T2, human Y5 receptor
[9] = biological target: human kappa opioid receptor (human, UniProt P41145 1-380)
[10] = biological target: human NPFF2 receptor (human, UniProt Q9Y5X5 1-522)
[11] = biological target: T3, human α2A adrenergic receptor
[12] = biological target: human dopamine D2 receptor (human, UniProt P14416 1-443)
[13] = biological target: T4, human Y2 receptor
[14] = biological target: human dopamine D1 receptor (human, UniProt P21728 1-446)
Sequence of human dopamine D1 receptor (P21728 whole entry): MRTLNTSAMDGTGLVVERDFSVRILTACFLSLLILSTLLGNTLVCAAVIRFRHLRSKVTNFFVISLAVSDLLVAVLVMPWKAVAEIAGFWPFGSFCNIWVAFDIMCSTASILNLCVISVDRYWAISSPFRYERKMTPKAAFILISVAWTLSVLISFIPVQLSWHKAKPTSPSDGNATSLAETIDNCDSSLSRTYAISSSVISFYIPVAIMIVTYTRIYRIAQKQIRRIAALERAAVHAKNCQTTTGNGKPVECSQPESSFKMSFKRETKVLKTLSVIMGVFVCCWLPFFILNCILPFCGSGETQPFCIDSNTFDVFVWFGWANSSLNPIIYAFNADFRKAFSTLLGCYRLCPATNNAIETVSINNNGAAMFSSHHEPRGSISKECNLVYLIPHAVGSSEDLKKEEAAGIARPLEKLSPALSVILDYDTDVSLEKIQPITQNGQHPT

Sequence of human NPFF2 receptor (Q9Y5X5 whole entry): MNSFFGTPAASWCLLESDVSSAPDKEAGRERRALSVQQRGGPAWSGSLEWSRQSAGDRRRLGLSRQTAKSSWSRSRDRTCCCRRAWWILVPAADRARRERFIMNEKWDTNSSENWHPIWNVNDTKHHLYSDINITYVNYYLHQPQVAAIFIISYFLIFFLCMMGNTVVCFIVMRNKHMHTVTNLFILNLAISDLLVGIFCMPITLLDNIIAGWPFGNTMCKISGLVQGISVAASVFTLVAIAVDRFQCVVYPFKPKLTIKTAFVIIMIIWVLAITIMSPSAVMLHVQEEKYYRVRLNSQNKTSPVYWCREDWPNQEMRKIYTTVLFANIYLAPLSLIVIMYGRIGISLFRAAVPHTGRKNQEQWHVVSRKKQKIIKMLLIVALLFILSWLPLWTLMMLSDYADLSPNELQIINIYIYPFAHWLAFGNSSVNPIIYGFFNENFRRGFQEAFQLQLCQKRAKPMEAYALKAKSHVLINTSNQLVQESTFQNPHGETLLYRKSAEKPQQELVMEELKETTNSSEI
Sequence of mouse 5HT5A receptor (P30966 whole entry): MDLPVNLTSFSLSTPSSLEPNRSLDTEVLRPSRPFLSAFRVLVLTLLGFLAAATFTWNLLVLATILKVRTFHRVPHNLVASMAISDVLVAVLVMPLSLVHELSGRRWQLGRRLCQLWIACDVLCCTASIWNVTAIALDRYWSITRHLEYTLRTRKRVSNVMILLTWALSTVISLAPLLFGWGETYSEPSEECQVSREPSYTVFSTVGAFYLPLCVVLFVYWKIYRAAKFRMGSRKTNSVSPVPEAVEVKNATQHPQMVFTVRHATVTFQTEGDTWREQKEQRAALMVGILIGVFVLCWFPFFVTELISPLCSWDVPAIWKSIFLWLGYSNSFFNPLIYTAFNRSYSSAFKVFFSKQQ
Sequence of human 5HT7 receptor (P34969 whole entry): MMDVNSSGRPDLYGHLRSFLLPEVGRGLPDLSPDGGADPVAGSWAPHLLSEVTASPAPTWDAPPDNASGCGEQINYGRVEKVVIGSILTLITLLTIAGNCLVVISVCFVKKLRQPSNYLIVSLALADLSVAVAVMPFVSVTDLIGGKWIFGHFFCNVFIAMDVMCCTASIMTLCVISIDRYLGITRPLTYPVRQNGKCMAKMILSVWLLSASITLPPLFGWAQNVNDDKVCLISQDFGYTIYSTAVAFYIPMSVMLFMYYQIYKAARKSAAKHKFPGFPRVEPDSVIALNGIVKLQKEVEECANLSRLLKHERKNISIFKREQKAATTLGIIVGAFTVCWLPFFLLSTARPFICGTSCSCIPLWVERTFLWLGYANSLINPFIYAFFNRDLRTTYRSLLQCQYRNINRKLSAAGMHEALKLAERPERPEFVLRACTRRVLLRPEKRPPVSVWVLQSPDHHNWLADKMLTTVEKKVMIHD
Sequence of human dopamine D5 receptor (P21918 whole entry): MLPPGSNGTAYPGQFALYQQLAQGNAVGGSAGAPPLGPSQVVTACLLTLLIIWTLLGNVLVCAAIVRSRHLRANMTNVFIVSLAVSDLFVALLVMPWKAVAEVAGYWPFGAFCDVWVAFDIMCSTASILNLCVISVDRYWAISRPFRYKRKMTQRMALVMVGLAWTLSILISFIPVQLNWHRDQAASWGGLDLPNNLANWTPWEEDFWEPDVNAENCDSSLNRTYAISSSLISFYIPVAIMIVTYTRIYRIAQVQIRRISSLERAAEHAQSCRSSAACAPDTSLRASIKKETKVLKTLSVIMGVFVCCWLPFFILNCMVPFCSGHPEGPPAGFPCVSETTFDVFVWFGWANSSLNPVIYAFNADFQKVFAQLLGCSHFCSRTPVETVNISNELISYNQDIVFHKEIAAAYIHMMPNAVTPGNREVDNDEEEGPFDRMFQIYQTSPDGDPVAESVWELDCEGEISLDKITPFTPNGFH
Sequence of human 5HT6 receptor (P50406 whole entry): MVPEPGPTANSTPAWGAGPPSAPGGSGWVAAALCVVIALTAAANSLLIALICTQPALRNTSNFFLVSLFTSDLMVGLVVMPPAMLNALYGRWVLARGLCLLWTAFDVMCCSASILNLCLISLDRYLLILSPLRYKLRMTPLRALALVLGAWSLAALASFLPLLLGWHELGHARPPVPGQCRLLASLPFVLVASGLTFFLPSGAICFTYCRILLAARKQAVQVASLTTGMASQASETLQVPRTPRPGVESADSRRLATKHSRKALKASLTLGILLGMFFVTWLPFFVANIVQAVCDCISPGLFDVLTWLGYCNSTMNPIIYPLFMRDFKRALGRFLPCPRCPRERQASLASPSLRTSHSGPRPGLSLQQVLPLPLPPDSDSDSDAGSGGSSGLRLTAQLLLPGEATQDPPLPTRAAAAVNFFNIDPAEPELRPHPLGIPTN
Sequence of human dopamine D2 receptor (P14416 whole entry): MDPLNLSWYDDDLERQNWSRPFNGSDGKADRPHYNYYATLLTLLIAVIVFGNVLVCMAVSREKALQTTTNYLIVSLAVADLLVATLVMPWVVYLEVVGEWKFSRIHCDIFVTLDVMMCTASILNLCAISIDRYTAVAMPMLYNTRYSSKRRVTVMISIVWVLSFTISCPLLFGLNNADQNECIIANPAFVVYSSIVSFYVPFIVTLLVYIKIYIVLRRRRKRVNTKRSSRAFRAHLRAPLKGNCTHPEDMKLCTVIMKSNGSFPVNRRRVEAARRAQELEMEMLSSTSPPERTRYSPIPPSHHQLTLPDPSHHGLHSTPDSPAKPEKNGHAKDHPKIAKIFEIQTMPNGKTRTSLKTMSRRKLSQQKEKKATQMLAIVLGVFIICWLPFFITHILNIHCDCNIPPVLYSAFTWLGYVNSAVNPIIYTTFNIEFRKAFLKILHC
Sequence of human 5HT4 receptor (Q13639 whole entry): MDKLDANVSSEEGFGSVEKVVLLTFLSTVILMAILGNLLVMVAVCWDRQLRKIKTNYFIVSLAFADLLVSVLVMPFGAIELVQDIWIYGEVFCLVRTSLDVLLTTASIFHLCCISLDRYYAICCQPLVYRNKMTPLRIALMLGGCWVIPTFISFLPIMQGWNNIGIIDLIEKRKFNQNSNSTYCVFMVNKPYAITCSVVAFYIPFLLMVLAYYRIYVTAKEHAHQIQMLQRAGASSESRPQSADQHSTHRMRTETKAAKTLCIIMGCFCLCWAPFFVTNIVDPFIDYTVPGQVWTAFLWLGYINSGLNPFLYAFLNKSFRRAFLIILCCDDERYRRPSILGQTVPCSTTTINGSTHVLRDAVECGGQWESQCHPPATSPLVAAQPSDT
Sequence of human kappa opioid receptor (P41145 whole entry): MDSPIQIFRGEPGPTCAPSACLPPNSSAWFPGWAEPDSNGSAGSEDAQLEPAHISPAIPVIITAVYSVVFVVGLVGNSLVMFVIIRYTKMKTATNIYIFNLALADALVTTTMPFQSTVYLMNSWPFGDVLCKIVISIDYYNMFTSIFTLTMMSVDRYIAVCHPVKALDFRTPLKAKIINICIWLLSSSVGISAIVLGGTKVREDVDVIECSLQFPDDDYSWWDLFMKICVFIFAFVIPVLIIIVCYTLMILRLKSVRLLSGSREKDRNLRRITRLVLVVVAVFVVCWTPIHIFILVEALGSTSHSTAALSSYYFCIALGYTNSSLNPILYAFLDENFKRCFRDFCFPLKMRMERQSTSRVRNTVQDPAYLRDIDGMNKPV
Sequence of rat Y4 receptor (Q63447 whole entry): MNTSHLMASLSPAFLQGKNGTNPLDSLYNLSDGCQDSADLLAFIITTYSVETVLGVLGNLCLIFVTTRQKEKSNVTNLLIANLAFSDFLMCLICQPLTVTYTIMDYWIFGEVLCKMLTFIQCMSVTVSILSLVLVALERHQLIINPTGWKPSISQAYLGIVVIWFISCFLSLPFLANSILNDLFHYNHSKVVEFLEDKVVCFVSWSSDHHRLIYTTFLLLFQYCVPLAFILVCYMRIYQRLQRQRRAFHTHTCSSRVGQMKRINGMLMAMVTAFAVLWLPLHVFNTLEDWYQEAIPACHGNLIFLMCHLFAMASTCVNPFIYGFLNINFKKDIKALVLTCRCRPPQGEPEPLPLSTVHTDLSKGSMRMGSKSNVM

Binder | max Ca2+ signal, COS-7, FLIPR; agonist 5HT [1] | max Ca2+ signal, COS-7, FLIPR; agonist 5HT [2] | max Ca2+ signal, COS-7, FLIPR; agonist DA [3] | max Ca2+ signal, COS-7, FLIPR; agonist 5HT [4] | max Ca2+ signal, COS-7, FLIPR; agonist 5HT [5] | max Ca2+ signal, COS-7, FLIPR; agonist GAL [6] | max Ca2+ signal, COS-7, FLIPR; agonist PP [7] | max Ca2+ signal, COS-7, FLIPR; agonist NPY [8] | max Ca2+ signal, COS-7, FLIPR; agonist U-69593 [9] | max Ca2+ signal, COS-7, FLIPR; agonist NPFF [10] | max Ca2+ signal, COS-7, FLIPR; agonist NE [11] | max Ca2+ signal, COS-7, FLIPR; agonist DA [12] | max Ca2+ signal, COS-7, FLIPR; agonist NPY [13] | max Ca2+ signal, COS-7, FLIPR; 100 µM dopamine [14]
B1 | 90 fluorescence units | 0 fluorescence units | 782 fluorescence units | 2160 fluorescence units | 210 fluorescence units | 82 fluorescence units | 4390 fluorescence units | 6410 fluorescence units | 7860 fluorescence units | 20000 fluorescence units | 10900 fluorescence units | 15600 fluorescence units | 10900 fluorescence units | 0 fluorescence units
B2 | 166 fluorescence units | 351 fluorescence units | 657 fluorescence units | 1010 fluorescence units | 1290 fluorescence units | 3090 fluorescence units | 3660 fluorescence units | 5310 fluorescence units | 5980 fluorescence units | 7570 fluorescence units | 7580 fluorescence units | 7620 fluorescence units | 7710 fluorescence units | 4830 fluorescence units
B3 | 129 fluorescence units | 270 fluorescence units | 797 fluorescence units | 1700 fluorescence units | 2290 fluorescence units | 5950 fluorescence units | 2580 fluorescence units | 6680 fluorescence units | 3470 fluorescence units | 4580 fluorescence units | 3040 fluorescence units | 4300 fluorescence units | 5390 fluorescence units | 
